Patent US20230408517A1 (BIO TECHNE, published 2023)
Residue numbers refer to the chain shown, from its start. Read-outs that look alike come from different tables or passages of the source.

B1: 1035224 (antibody, V domains shown)
VH: EVQLQQSGAEFVRPGALVKLSCKASGFNIKDDYMHWVKQRPEQGLEWIGWIDPENGNSIYDPKFQGKASITADTSSNTAYLQLSSLTSEDTAVYYCARGEYFGSGSFAYWGQGTLVTVSA
VL: QIVLTQSPAIMSASPGEKVTISCSASSSVSYMYWYQQKPGSSPKPWIYRTSNLASGVPARFSGSGSGTSYSLTISSMEAEDAATYYCQQYHSYPYMYTFGGGTKLEIK
B2: 1035752 (antibody, V domains shown)
VH: QVQLQQPGAELVRPGASVKMSCKASGYTFTSHSIHWVKQTPGQGLEWIGAVYPGNGDTSYYQKFKGKATLTADKSSSTAYMHLSSLTSEDSAVYYCARDGYSDYYAMDCWGQGTSVTVSS
VL: DIVMTQSQKFMSTSVGDRVSVTCKASQNVGTNVAWYQQKPGQSPKALIYSASYRYSGVPDRFTGSGSGTDFTLTINNVQSEDLAEYFCQQYNRYPWTFGGGTKLEIK
B3: 1035423 (antibody, V domains shown)
VH: EVKLEESGGGLVQPGGSMKLSCTASGFTFSDAWMDWVRQSPEKGLEWVAEIRNKANNHATYYAESVKGRFTISRDDSKSSVYLQMNSLRAEDTGIYYCILFITYAMDYWGQGTSVTVSS
VL: DIVLTQSQKFMSTSVGDRVSITCKASQNVRTAVAWYQQKPGQSPKALIYLASNRHTGVPDRFTGSGSGTDFTLTISNVQSEDLADYFCLQHWNYPLTFGSGTKLELK
B4: 1035716 (antibody, V domains shown)
VH: EVLLQQSGPELVKPGASVKIPCKASGYTFTDYNMDWVKQSHGKSLEWIGDINPNNGGTIYNQKFKGKATLTVDKSSSTAYMELRSLTSEDTAVYYCAREGYGNYFDYWGQGTTLTVSS
VL: DILLTQSPAILSVSPGERVSFSCRASQSIGTSIHWYQQRTNGSPRLLIKYASESISGIPSRFSGSGSGTDYTLSINSVESEDIADYYCQQSYSWPTTFGAGTKLELK
B5: 1035433 (antibody, V domains shown)
VH: QVQLQQSGPQLVRPGASVKISCKASGYSFTIYWMHWVQQRPGQGLEWIGMIDPSDSETRLNQKFKDKATLTVDKSSSTAYMQLSSPTSEDSAVYYCARRGDYNFDYWGQGTTLTVSS
VL: DIVMTQAAPSVPATPGESVSISCRSSKSLLHSNGNTYLYWFLQRPGQSPQLLIFRMSNLASGVPDRFSGSGSGTAFTLRISRVEAEDVGVYYCMQHLEYPYTFGGGTKLEIK
B6: 1035414 (antibody, V domains shown)
VH: QVQLKQSGAELVRPGASVKLSCKTSGYIFTSYWIHWVKQRSGQGLEWIARIYPGTGNTYYNEKFKGKATLTADKSSTTAYMQLSSLKSEDSAVYFCARGEDNLYYYAMDYWGQGTSVTVSS
VL: NIVLTQSPASLAVSLGQRATISCRASESVDSYGTSFMHWYQQKPGQPPKLLIYLASNLESGVPASFSGSGSRTDFTLTIDPVEADDAATYYCQQNNEDPWTFGGGTKLEIK
B7: 1035419 (antibody, V domains shown)
VH: B6 VH with V37I, N57S, Y60N, T77S, Y105F
VL: B6 VL with T34A, Y40C, S65R, N96Y
B8: 1035240 (antibody, V domains shown)
VH: QVQLQQSGAELARPGASVKMSCKASGYTFTTYTMHWVKQRPGQGLEWIGYINPSSGYTNYNQKFKDKATLTADTSSSTAYMQLSSLTSEDSAVYYCARRNPLYAMDYWGQGTSVTVSS
VL: DIKMTQSPSSMYASLGERVTITCKASQDINSYLNWFQQKPGKSPKTLIYRANRLVDGVPSRFSGSGSGQDYSLTISSLEYEDMGIYYCLQYDEFPYTFGGGTKLEIK

Columns and labels:
[1] = biological target: T1, recombinant monomeric SARS-CoV-2 S1 protein, his-tagged (SARS-CoV-2, UniProt P0DTC2 16-681); test: flow cytometry, blocking of binding to hACE-2 cells
T1 construct: domain: S1

[2] = biological target: T2, recombinant his-tagged homotrimeric SARS-CoV-2 spike protein (SARS-CoV-2, UniProt P0DTC2 16-1211); test: as above
[3] = biological target: T3, recombinant monomeric SARS-CoV-1 S1 protein (SARS-CoV-1, UniProt P59594 14-667); test: as above
[4] = biological target: T4, SARS-CoV spike RBD (R306-F527), C-terminal 6-His (SARS-CoV, UniProt P59594 306-527); test: as above
[5] = biological target: T1, recombinant monomeric SARS-CoV-2 S1 …; test: as above; remark: listed apart in the source
[6] = biological target: T2, recombinant his-tagged homotrimeric …; test: as above; remark: listed apart in the source
[7] = biological target: T3, recombinant monomeric SARS-CoV-1 S1 …; test: as above; remark: listed apart in the source
[8] = biological target: T4, SARS-CoV spike RBD (R306-F527), …; test: as above; remark: listed apart in the source
[9] = biological target: T4, SARS-CoV spike RBD (R306-F527), …; test: dipstick, adsorbed RBD spots, Ab 10 µg/mL, GAM-AuNP
[10] = biological target: T3, recombinant monomeric SARS-CoV-1 S1 …; test: antigen-down ELISA, coated SARS-CoV-1 S1 titrated, Ab 1 µg/mL
[11] = biological target: T3, recombinant monomeric SARS-CoV-1 S1 …; test: as above; remark: listed apart in the source
[12] = biological target: T4, SARS-CoV spike RBD (R306-F527), …; test: antigen-down ELISA, coated SARS-CoV-1 S1 RBD titrated, Ab 1 µg/mL
[13] = biological target: T3, recombinant monomeric SARS-CoV-1 S1 …; test: antigen-down ELISA, coated SARS-CoV-1 S1 titrated, Ab 1 µg/mL; remark: listed apart in the source
[14] = biological target: T4, SARS-CoV spike RBD (R306-F527), …; test: antigen-down ELISA, coated SARS-CoV-1 S1 RBD titrated, Ab 1 µg/mL; remark: listed apart in the source
[15] = biological target: T3, recombinant monomeric SARS-CoV-1 S1 …; test: antigen-down ELISA, coated SARS-CoV-1 S1 titrated, Ab 1 µg/mL; remark: listed apart in the source
[16] = biological target: T4, SARS-CoV spike RBD (R306-F527), …; test: antigen-down ELISA, coated SARS-CoV-1 S1 RBD titrated, Ab 1 µg/mL; remark: listed apart in the source
[17] = biological target: T4, SARS-CoV spike RBD (R306-F527), …; test: lateral flow NC50, RBD-AuNP vs immobilised ACE2
BSA [18] = biological target: T5, BSA (bovine, UniProt P02769); test: dipstick, adsorbed protein spots, Ab 10 µg/mL (reference)
T5 construct: also called bovine serum albumin
T5 sequence (P02769 25-607 limits assumed): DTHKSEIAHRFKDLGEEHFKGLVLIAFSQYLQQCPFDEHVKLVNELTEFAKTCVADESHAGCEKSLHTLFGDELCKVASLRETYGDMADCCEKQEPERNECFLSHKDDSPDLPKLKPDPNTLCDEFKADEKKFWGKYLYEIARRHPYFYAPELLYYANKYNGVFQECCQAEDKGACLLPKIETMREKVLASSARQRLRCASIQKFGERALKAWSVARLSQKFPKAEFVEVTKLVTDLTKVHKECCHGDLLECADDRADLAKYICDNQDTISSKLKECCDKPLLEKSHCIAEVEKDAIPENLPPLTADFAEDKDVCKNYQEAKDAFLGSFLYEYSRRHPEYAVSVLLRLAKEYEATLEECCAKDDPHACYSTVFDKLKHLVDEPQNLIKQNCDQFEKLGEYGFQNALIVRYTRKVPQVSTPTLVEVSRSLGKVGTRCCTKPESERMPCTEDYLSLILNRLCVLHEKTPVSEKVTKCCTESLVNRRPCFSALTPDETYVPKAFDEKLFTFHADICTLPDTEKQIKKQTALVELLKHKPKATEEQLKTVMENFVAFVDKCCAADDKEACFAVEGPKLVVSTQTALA

[19] = biological target: T4, SARS-CoV spike RBD (R306-F527), …; test: dipstick, adsorbed RBD spots, Ab 10 µg/mL, GAM-AuNP; remark: listed apart in the source
[20] = biological target: T3, recombinant monomeric SARS-CoV-1 S1 …; test: antigen-down ELISA, coated SARS-CoV-1 S1 titrated, Ab 1 µg/mL; remark: listed apart in the source
BSA [21] = biological target: T5, BSA; test: dipstick, adsorbed protein spots, Ab 10 µg/mL, GAM-AuNP

Row | Binder | percent blocking [1] [%] | percent blocking [2] [%] | percent blocking [3] [%] | percent blocking [4] [%] | percent blocking [5] [%] | percent blocking [6] [%] | percent blocking [7] [%] | percent blocking [8] [%] | other results
1 | B1 | 86.6 | 96.6 | 0 | 0 | 86.6 | 96.6 | 0 | 0 | binding result [9]: no binding (tested: 10 µg/mL); binding result [10]: no binding (tested: 400 ng coated (axis))
2 | B2 | 93.3 | 91.8 | 0 | 0 | 93.3 | 91.8 | 0 | 0 | binding result [11]: no binding (tested: 400 ng coated (axis)); binding result [12]: no binding (tested: 400 ng coated (axis))
3 | B3 | – | 91.6 | 0 | 0 | 19.7 | 91.6 | 0 | 0 | binding result [13]: no binding (tested: 400 ng coated (axis)); binding result [14]: no binding (tested: 400 ng coated (axis))
4 | B4 | 93.8 | 96.5 | 89.5 | 68.7 | 93.8 | 96.5 | 89.5 | 68.7 | –
5 | B5 | 9.3 | 82.5 | 0 | 0 | 9.3 | 82.5 | 0 | 0 | binding result [15]: no binding (tested: 400 ng coated (axis)); binding result [16]: no binding (tested: 400 ng coated (axis))
6 | B6 | 25.9 | 51.4 | 12 | 0.4 | 25.9 | 51.4 | 12 | 0.4 | –
7 | B7 | 70.1 | 89 | 88.5 | 44.1 | 70.1 | 89 | 88.5 | 44.1 | IC50 [17]: 2.86 µg/mL; binding result (BSA [18]): no binding (tested: 10 µg/mL)
8 | B8 | 56.5 | 96.1 | 0 | 0 | 56.5 | 96.1 | 0 | 0 | binding result [19]: no binding (tested: 10 µg/mL); binding result [20]: no binding (tested: 400 ng coated (axis)); binding result (BSA [21]): no binding (tested: 10 µg/mL)
